Data: paper PMC3958483, “Fine Specificity and Molecular Competition in SLAM Family Receptor Signalling” (PLoS ONE, 2014)

Tests used:
Test in all cases: SPR; biotinylated phosphopeptides immobilised on streptavidin chip (about 25 RU single, 50 RU tandem motifs); soluble recombinant protein injected; 37°C; HBS-EP; equilibrium binding (Table 4; same-day purification not given)
[1] = molecular target: CD244 ITSM2 phosphopeptide (human)
[2] = molecular target: CD244 ITSM3 phosphopeptide (human)
[3] = molecular target: CD244 ITSM4 phosphopeptide (human)

Row | Binder | Kd [1] [nM] | Kd [2] [nM] | Kd [3] [nM]
1 | EAT-2 (recombinant full-length human EAT-2) (natural protein) MDLPYYHGRLTKQDCETLLLKEGVDGNFLLRDSESIPGVLCLCVSFKNIVYTYRIFREKHGYYRIQTAEGSPKQVFPSLKELISKFEKPNQGMVVHLLKPIKRTSPSLRWRGLKLELETFVNSNSDYVDVLP | 60 | 70 | 40
2 | SHP-2 N-terminal + C-terminal (N+C) SH2 domains (domain or fragment) TSRRWFHPNITGVEAENLLLTRGVDGSFLARPSKSNPGDFTLSVRRNGAVTHIKIQNTGDYYDLYGGEKFATLAELVQYYMEHHGQLKEKNGDVIELKYPLNCADPTSERWFHGHLSGKEAEKLLTEKGKHGSFLVRESQSHPGDFVLSVRTGDDKGESNDGKSKVTHVMIRCQELKYDVGGGERFDSLTDLVEHYKKNPMVETLGTVLQLKQPLNTT | 24000 | – | –
3 | SHIP SH2 (SH2 domain from human SHIP-1) (domain or fragment) WNHGNITRSKAEELLSRTGKDGSFLVRASESISRAYALCVLYRNCVYTYRILPNEDDKFTVQASEGVSMRFFTKLDQLIEFYKKENMGLVTHLQYPV | 2300 | 2200 | 5600
